Assay results published in US5808025.

Tests used:
[1] = target: chimeric selectin L2P (human) (UniProt P16109)
[2] = target: chimeric selectin L2P3L (human) (UniProt P16109)

Substance LAM1-3 mAb (antibody) has a lymphocytes bound/HEV (lymphocytes bound/HEV) (L-selectin (human)) of 0.05, a lymphocytes bound/HEV (lymphocytes bound/HEV) [1] of 0.074 and a lymphocytes bound/HEV (lymphocytes bound/HEV) [2] of 0.08.
